In patent publication US20240360242A1 (KISOJI BIOTECHNOLOGY, published 2024):
Substitutions are numbered along the chain they refer to.

T1: human TROP2 cysteine poor domain (CPD), recombinant (human, UniProt P09758 147-274)
T1 sequence: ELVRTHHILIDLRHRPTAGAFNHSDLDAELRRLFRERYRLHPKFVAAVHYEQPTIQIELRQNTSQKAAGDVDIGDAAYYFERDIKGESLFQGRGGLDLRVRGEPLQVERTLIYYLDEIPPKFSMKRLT

T2: recombinant human EpCAM (human, UniProt P16422 24-265)
T2 construct: also called rhEpCAM
T2 sequence (looked up): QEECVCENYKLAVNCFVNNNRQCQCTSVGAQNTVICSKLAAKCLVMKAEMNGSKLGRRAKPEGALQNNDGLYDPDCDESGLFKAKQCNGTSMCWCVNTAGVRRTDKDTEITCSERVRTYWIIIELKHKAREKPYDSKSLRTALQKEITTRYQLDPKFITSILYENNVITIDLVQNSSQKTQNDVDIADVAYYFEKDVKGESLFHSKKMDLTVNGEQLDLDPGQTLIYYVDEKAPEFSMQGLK

T3: recombinant human IGFBP-1 (human, UniProt P08833 26-259)
T3 construct: also called rhIGFB-1
T3 sequence (looked up): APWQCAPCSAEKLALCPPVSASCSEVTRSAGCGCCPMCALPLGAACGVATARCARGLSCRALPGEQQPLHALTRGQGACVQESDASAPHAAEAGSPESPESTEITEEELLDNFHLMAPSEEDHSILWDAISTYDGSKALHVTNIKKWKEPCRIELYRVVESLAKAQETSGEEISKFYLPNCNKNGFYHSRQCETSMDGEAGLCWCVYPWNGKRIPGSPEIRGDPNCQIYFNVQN

T4: HEK-TROP2 Δ27-73 (human, UniProt P09758)
T4 construct: deletion of residues 27-73, transiently expressed on HEK cells
T4 sequence (membrane protein on transfected HEK cells, looked up): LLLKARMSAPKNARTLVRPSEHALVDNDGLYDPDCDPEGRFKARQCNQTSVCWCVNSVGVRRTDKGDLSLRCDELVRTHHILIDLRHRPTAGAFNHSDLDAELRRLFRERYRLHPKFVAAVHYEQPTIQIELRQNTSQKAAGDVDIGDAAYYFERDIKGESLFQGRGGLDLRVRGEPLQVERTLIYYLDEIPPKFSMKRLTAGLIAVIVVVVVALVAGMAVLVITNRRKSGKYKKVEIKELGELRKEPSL

T5: HEK-TROP2 Δ27-85 (human, UniProt P09758)
T5 construct: deletion of residues 27-85, transiently expressed on HEK cells
T5 sequence (membrane protein on transfected HEK cells, looked up): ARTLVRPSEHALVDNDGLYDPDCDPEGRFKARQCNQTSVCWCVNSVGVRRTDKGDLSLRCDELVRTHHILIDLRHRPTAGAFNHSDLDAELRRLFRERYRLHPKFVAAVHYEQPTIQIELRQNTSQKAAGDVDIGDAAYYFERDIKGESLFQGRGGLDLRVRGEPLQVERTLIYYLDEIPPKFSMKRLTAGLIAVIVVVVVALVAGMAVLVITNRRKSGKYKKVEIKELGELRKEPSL

B1: KD002 (antibody, human IgG1, V domains shown)
VH: QVQLQESGGGMVQVGGSLRLSCAASGFPFSSADMSWVRQAPGKGPEWVSYINADGSKTYYPDSVKGRFTISRDNAKNTLYLLMNNLKPEDTALYRCARAKLTDTHYVEDYWGQGTQVTVSS
notes: also called anti-TROP2 sdAb KD002
B2: KD003 (antibody, human IgG1, V domains shown)
VH: B1 VH with V14P, P28T, S31N, A32Y, D54G, K57N, Y59D, T78M
notes: also called anti-TROP2 sdAb KD003
B3: KD001 (antibody, human IgG1, V domains shown)
VH: QVQLQESGGGMVHPGGSLRLSCAASGFTFSGSDMSWVRQAPGKGPEWVSYITSGGTTYYPDSVKGRFTISRDNAKNTLYLQMNSLTPDDTALYRCAKARLTDSHYVEDAWGQGTQVTVSS
notes: also called anti-TROP2 sdAb KD001
B4: KD005 (antibody, human IgG1, V domains shown)
VH: B3 VH with M11L, H13E, P14A, T86K, A98S
notes: also called anti-TROP2 sdAb KD005
B5: KD004 (antibody, human IgG1, V domains shown)
VH: B3 VH with M11L, H13Q, G16R, S53G, G54S, I69T, T77M, T86K
notes: also called anti-TROP2 sdAb KD004
B6: KD007 (antibody, human IgG1, V domains shown)
VH: QVQLQESGGGLVQPGGSLRLSCAASGFAFSFYAMAWYRQAPGKQRDMVATITAYGNTNYADSVKGRFTTSRDNAKNTVYLQMNSLKPEDTAVYVCNANLPSASHNYWGQGTQVTVSS
notes: also called anti-TROP2 sdAb KD007

Biological target: T1, human TROP2 cysteine poor domain (CPD), …
Assay: immunoblot, 1 µg/mL antibody, anti-human IgG-HRP
Description: Samples of recombinant proteins of human TROP2 extracellular domain (ECD) (Sino Biological, Cat. no. 10428-H08H) and human TROP2 cysteine poor domain (CPD) were prepared for SDS-PAGE analysis under reducing or non-reducing conditions with NuPAGE™ LDS Sample Buffer (ThermoFisher Cat. no NP0007) with NuPAGE™ Sample Reducing Agent (ThermoFisher Cat. no. NP0004) or without reducing agent. Samples under reducing condition were denatured by heating at 70° C. for 10 minutes. Samples (16 μL) were loaded onto 4-12% Bis-Tris mini-gels (1.5 mm, 15 wells) or 250 ng of samples were loaded onto 14% Tris-glycine mini-gels alongside a BSA standard. […] Gels were stained using GelCode™ staining reagent (Thermo Fisher, Cat. no. 24594).
Proteins were transferred to nitrocellulose membranes using the iBlot™ system (Thermo Fisher, Cat. no. IB301031) according to the manufacturer's instructions. Membranes were blocked by incubation in PBS/0.1% Tween™ 20/5% Milk for 1 hour at room temperature with shaking, followed by incubation with 1 μg/mL of Anti-TROP2 antibodies or the isotype control (IgG1 isotype) in 20 mL of PBS/0.1% Tween™ 20/5% milk. Membranes were washed three times for 10 minutes with PBS/0.1% Tween™ 20. Membranes were incubated with HRP-conjugated goat anti-human IgG antibody (Sigma-Aldrich, AP113P) diluted at 1:10000 in blocking buffer for 1 hour at room temperature with shaking. Membranes were washed three times for 10 minutes with PBS/0.1% Tween™ 20. The signal was visualized using Super Signal™ West Pico PLUS (Thermo Fisher, Cat. no. 34080) according to the manufacturer's instructions. Images were captured using the Azure Biosystem imaging system.

Binder | binding result
B1 | no binding (tested: 1 µg/mL)
B2 | no binding (tested: 1 µg/mL)
B3 | no binding (tested: 1 µg/mL)
B4 | no binding (tested: 1 µg/mL)
B5 | no binding (tested: 1 µg/mL)

Biological target: T6, BSA (bovine, UniProt P02769)
T6 construct: also called bovine serum albumin
T6 sequence (P02769 25-607 limits assumed): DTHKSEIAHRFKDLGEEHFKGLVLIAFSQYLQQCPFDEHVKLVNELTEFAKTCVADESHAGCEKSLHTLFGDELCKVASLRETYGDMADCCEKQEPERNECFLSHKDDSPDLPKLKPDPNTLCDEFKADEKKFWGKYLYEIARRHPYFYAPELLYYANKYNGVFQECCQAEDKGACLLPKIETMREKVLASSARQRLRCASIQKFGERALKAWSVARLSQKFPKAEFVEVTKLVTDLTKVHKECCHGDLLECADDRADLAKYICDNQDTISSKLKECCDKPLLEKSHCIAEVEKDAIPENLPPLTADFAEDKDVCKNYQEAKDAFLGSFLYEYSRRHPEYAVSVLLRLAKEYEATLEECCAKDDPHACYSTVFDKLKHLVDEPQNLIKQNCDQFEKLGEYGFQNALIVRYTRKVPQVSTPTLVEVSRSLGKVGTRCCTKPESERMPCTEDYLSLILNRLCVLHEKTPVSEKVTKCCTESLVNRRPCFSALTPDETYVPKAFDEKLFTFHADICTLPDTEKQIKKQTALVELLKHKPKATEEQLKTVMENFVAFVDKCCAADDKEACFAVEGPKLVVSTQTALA
Assay: ELISA on coated recombinant protein, 200 nM antibody, RLU

Binder | binding result
B1 | no binding (tested: 200 nM)
B2 | no binding (tested: 200 nM)
B3 | no binding (tested: 200 nM)
B4 | no binding (tested: 200 nM)
B5 | no binding (tested: 200 nM)

Biological target: T2, recombinant human EpCAM
Assay: as above

Binder | binding result
B1 | no binding (tested: 200 nM)
B2 | no binding (tested: 200 nM)
B3 | no binding (tested: 200 nM)
B4 | no binding (tested: 200 nM)
B5 | no binding (tested: 200 nM)

Biological target: T3, recombinant human IGFBP-1
Assay: as above

Binder | binding result
B1 | no binding (tested: 200 nM)
B2 | no binding (tested: 200 nM)
B3 | no binding (tested: 200 nM)
B4 | no binding (tested: 200 nM)
B5 | no binding (tested: 200 nM)

Biological target: T4, HEK-TROP2 Δ27-73
Assay: flow cytometry, 100 nM antibody, transiently transfected HEK cells, APC anti-human Fc
Description: (§1) To determine the effect of TROP2 truncations on the binding ability of anti-TROP2 sdAbs, the HEK parental cells were transiently transfected with human TROP2 mutants by lipofectamine. 24 hours after transfection, cells were collected and stained with anti-TROP2 antibodies (FIG. 13A and FIG. 13B). In brief, 1×10⁵ cells were incubated with an Fc receptor blocking antibody (1/100 dilution) for 10 minutes at room temperature. Anti-TROP2 antibodies were diluted in FACS staining buffer to 100 nM and added and incubated with cells for 30 minutes on ice. After washing three times with FACS staining buffer, APC-conjugated secondary antibodies recognizing the human Fc region (Biolegend, Cat #410712) were mixed with cells. After staining for 30 minutes, cells were washed three times, followed by resuspension into 100 μL of 7-Amino-Actinomycin D (7-AAD) solution (BD Biosciences, Cat #559925).

Binder | binding result
B1 | no binding (tested: 100 nM)
B2 | no binding (tested: 100 nM)
B3 | no binding (tested: 100 nM)
B4 | no binding (tested: 100 nM)
B5 | no binding (tested: 100 nM)
B6 | no binding (tested: 100 nM)

Biological target: T5, HEK-TROP2 Δ27-85
Assay: as above
Description: as §1

Binder | binding result
B1 | no binding (tested: 100 nM)
B2 | no binding (tested: 100 nM)
B3 | no binding (tested: 100 nM)
B4 | no binding (tested: 100 nM)
B5 | no binding (tested: 100 nM)
B6 | no binding (tested: 100 nM)
